Measurements: patent US20090149339A1 (published 2009)
Like-named read-outs stand apart in the source and are kept apart here. Ends that are not written are not given here. * marks the point of attachment. Biotin = O=C1N[C@H]2[C@H](CS[C@H]2CCCCC(=O)*)N1

B1: DOCK2 C-terminal PL peptide AA40L, biotinylated (peptide)
peptide: Biotin-LASKSAEEGKQIPDSLSTDL
B2: CD148 (DEP-1) C-terminal PL peptide AA19L (ends GYIA), biotinylated (peptide)
peptide: Biotin-ENLAPVTTFGKTNGYIA
B3: CD166 (CD6L) C-terminal PL peptide AA20L, biotinylated (peptide)
peptide: Biotin-DLGNMEENKKLEENNHKTEA

Columns and labels:
[1] = molecular target: GST-NOS1 PDZ domain fusion protein (human neuronal nitric oxide synthase; PDZ domain 1 of 1) (human, UniProt P08515 1-218 = GST); assay: A/G assays
[2] = molecular target: T1, GST-CASK PDZ domain fusion protein (CASK AA495-584; PDZ domain 1 of 1) (mouse, UniProt P08515 1-218 = GST); assay: A/G assays
T1 construct: also called mCASK
T1 sequence (P08515 1-218, tags or fused parts left off): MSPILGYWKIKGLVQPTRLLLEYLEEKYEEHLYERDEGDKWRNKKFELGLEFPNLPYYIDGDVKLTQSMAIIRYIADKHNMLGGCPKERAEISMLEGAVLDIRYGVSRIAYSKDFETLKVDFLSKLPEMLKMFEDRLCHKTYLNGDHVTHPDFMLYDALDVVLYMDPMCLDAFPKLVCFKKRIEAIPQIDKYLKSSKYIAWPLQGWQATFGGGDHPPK

[3] = molecular target: GST-LIMK2 PDZ domain fusion protein (human LIM domain kinase 2 AA185-275; PDZ domain 1 of 1) (human, UniProt P08515 1-218 = GST); assay: A/G assays
Sequence of GST-LIMK2 PDZ domain fusion protein (human LIM domain kinase 2 AA185-275; PDZ domain 1 of 1) (P08515 1-218, tags or fused parts left off): as above

[4] = molecular target: T2, GST-KIAA0303 PDZ domain fusion protein (KIAA0303 AA652-742; PDZ domain 1 of 1) (UniProt P08515 1-218 = GST); assay: A/G assays
T2 construct: also called K303
T2 sequence (P08515 1-218, tags or fused parts left off): as above

[5] = molecular target: GST-MPP1 PDZ domain fusion protein (55 Kd erythrocyte membrane protein AA101-186; PDZ domain 1 of 1) (UniProt P08515 1-218 = GST); assay: A/G assays
Sequence of GST-MPP1 PDZ domain fusion protein (55 Kd erythrocyte membrane protein AA101-186; PDZ domain 1 of 1) (P08515 1-218, tags or fused parts left off): as above

[6] = molecular target: GST-MINT3 PDZ domain fusion protein (human MINT3 AA11-52; PDZ domain 1 of 1) (human, UniProt P08515 1-218 = GST); assay: A/G assays
Sequence of GST-MINT3 PDZ domain fusion protein (human MINT3 AA11-52; PDZ domain 1 of 1) (P08515 1-218, tags or fused parts left off): as above

[7] = molecular target: T3, GST-MPP2 PDZ domain fusion protein (maguk p55 subfamily member 2 (DLG2) AA185-273; PDZ domain 1 of 1) (UniProt P08515 1-218 = GST); assay: A/G assays
T3 construct: also called MMP2
T3 sequence (P08515 1-218, tags or fused parts left off): as above

[8] = molecular target: T4, GST-TAX33 PDZ domain fusion protein (tax interaction protein 33 AA73-162; PDZ domain 1 of 1) (UniProt P08515 1-218 = GST); assay: A/G assays
T4 construct: also called TX33
T4 sequence (P08515 1-218, tags or fused parts left off): as above

[9] = molecular target: GST-DVL1 PDZ domain fusion protein (human dishevelled segment polarity protein homolog AA248-340); PDZ domain … (human, UniProt P08515 1-218 = GST); assay: A/G assays
Sequence of GST-DVL1 PDZ domain fusion protein (human dishevelled segment polarity protein homolog AA248-340); PDZ domain … (P08515 1-218, tags or fused parts left off): as above

[10] = molecular target: GST-PTN-4 PDZ domain fusion protein (protein-tyrosine phosphatase meg1 AA774-862; PDZ domain 1 of 1) (UniProt P08515 1-218 = GST); assay: A/G assays
[11] = molecular target: GST-prIL16 PDZ domain fusion protein (putative interleukin 16 precursor AA170-383; PDZ domains 1-2 of 2) (UniProt P08515 1-218 = GST); assay: A/G assays
[12] = molecular target: GST-AF6 PDZ domain fusion protein (af-6 protein AA985-1077; PDZ domain 1 of 1) (UniProt P08515 1-218 = GST); assay: A/G assays
Sequence of GST-AF6 PDZ domain fusion protein (af-6 protein AA985-1077; PDZ domain 1 of 1) (P08515 1-218, tags or fused parts left off): as above

[13] = molecular target: T5, GST-RGS12 PDZ domain fusion protein (human regulator of G-protein signalling 12 AA35-103; PDZ domain 1 of 1) (human, UniProt P08515 1-218 = GST); assay: A/G assays
T5 construct: also called RSG12
T5 sequence (P08515 1-218, tags or fused parts left off): as above

[14] = molecular target: T6, GST-TAX2 PDZ domain fusion protein (human tax interaction protein 2 AA54-140; PDZ domain 1 of 1) (human, UniProt P08515 1-218 = GST); assay: A/G assays
T6 construct: also called TX 2
T6 sequence (P08515 1-218, tags or fused parts left off): as above

[15] = molecular target: GST-LIM PDZ domain fusion protein (Human LIM protein AA29-112; PDZ domain 1 of 1) (human, UniProt P08515 1-218 = GST); assay: A/G assays
Sequence of GST-LIM PDZ domain fusion protein (Human LIM protein AA29-112; PDZ domain 1 of 1) (P08515 1-218, tags or fused parts left off): as above

[16] = molecular target: T7, GST-KIAA0559 PDZ domain fusion protein (KIAA0559 AA766-870; PDZ1 of 1) (UniProt P08515 1-218 = GST); assay: A/G assays
T7 construct: also called K559
T7 sequence (P08515 1-218, tags or fused parts left off): as above

[17] = molecular target: T8, GST-TAX43 PDZ domain fusion protein (human tax interaction protein 43 AA15-85; PDZ domain 1 of 1) (human, UniProt P08515 1-218 = GST); assay: A/G assays
T8 construct: also called TX 43

[18] = molecular target: T9, GST-CBP PDZ domain fusion protein (Cytohesin binding protein HE AA85-175; PDZ domain 1 of 1) (UniProt P08515 1-218 = GST); assay: A/G assays
T9 construct: also called Prot
T9 sequence (P08515 1-218, tags or fused parts left off): as above

[19] = molecular target: T10, GST-KIAA0316 PDZ domain fusion protein (KIAA0316 AA197-284; PDZ domain 1 of 1) (UniProt P08515 1-218 = GST); assay: A/G assays
T10 construct: also called K316
T10 sequence (P08515 1-218, tags or fused parts left off): as above

[20] = molecular target: GST-TIAM1 PDZ domain fusion protein (T-lymphoma invasion and metastasis inducing protein 1 AA1001-1088); PDZ 1 … (UniProt P08515 1-218 = GST); assay: A/G assays
Sequence of GST-TIAM1 PDZ domain fusion protein (T-lymphoma invasion and metastasis inducing protein 1 AA1001-1088); PDZ 1 … (P08515 1-218, tags or fused parts left off): as above

[21] = molecular target: T11, GST-TAX40 PDZ domain fusion protein (human tax interaction protein 40 AA35-137; PDZ domain 1 of 1) (human, UniProt P08515 1-218 = GST); assay: A/G assays
T11 construct: also called TX 40
T11 sequence (P08515 1-218, tags or fused parts left off): as above

[22] = molecular target: T12, GST-41.8 kD PDZ domain fusion protein (hypothetical 41.8 kD protein AA4-85; PDZ domain 1 of 1) (UniProt P08515 1-218 = GST); assay: A/G assays
T12 construct: also called hypoth
T12 sequence (P08515 1-218, tags or fused parts left off): as above

[23] = molecular target: T13, GST-SYN1a PDZ domain fusion protein (alpha1-syntrophin AA96-189; PDZ domain 1 of 1) (UniProt P08515 1-218 = GST); assay: G assay
T13 construct: also called SYN 1 alpha; SYNTR 1 alpha
T13 sequence (P08515 1-218, tags or fused parts left off): as above

[24] = molecular target: T14, GST-NeDLG PDZ domain fusion protein (presynaptic protein sao102, neuroendocrine-dlg; PDZ domains 1-2 of 3) (UniProt P08515 1-218 = GST); assay: G assay
T14 construct: also called NeDLG1
T14 sequence (P08515 1-218, tags or fused parts left off): as above

[25] = molecular target: T15, GST-PSD95 PDZ domain fusion protein (human post-synaptic density protein 95 AA387-724; PDZ domains 1-3 of 3) (human, UniProt P08515 1-218 = GST); assay: A and G assays
T15 sequence (P08515 1-218, tags or fused parts left off): as above

[26] = molecular target: T12, GST-41.8 kD PDZ domain fusion protein …; assay: A/G assays; remark: listed apart in the source
[27] = molecular target: T13, GST-SYN1a PDZ domain fusion protein …; assay: A/G assays
[28] = molecular target: T14, GST-NeDLG PDZ domain fusion protein …; assay: A/G assays
[29] = molecular target: T15, GST-PSD95 PDZ domain fusion protein …; assay: A/G assays

Binder	binding result [1]	binding result [2]	binding result [3]	binding result [4]	binding result [5]	binding result [6]	binding result [7]	binding result [8]	binding result [9]	binding result [10]	binding result [11]	binding result [12]	binding result [13]	binding result [14]	binding result [15]	binding result [16]	binding result [17]	binding result [18]	binding result [19]	binding result [20]	other results
B1	no binding	no binding	no binding	no binding	no binding	no binding	no binding	no binding	no binding	no binding	no binding	no binding	no binding	no binding	no binding	no binding	no binding	no binding	no binding	no binding	binding result [21]: no binding; binding result [22]: no binding; binding result [23]: binds; binding result [24]: binds; binding result [25]: binds
B2	no binding	no binding	no binding	no binding	no binding	no binding	no binding	no binding	no binding	no binding	no binding	no binding	no binding	no binding	no binding	no binding	no binding	no binding	no binding	no binding	binding result [26]: no binding; binding result [27]: no binding; binding result [28]: no binding; binding result [29]: no binding; binding result [21]: no binding
B3	no binding	no binding	no binding	no binding	no binding	no binding	no binding	no binding	no binding	no binding	no binding	no binding	no binding	no binding	no binding	no binding	no binding	no binding	no binding	no binding	binding result [26]: no binding; binding result [27]: no binding; binding result [28]: no binding; binding result [29]: no binding; binding result [21]: no binding
